Data from publication PMC8597827, “The effect of S427F mutation on RXRα activity depends on its dimeric partner†”.

Molecular target: RXRα S427F (human, UniProt P19793 1-462, S427F)
Assay: EMSA; no ligand; binds as well as WT; two shifts; competed by 5x and 25x unlabeled DR1; 10 mM Tris HCl pH 8.0, 150 mM KCl, 0.5 mM EDTA, 0.1% Triton X-100, 12.5% glycerol, 0.2 mM DTT, 1 ug poly(dI-dC), 100 pmol probe in 20 uL; 10 min RT then 5 min 37 C; 5% PAGE in 0.5x TBE at 4 C
Details: protein: recombinant; chain copies: 2; blunt

Chain of RXRα S427F (P19793 whole entry S427F): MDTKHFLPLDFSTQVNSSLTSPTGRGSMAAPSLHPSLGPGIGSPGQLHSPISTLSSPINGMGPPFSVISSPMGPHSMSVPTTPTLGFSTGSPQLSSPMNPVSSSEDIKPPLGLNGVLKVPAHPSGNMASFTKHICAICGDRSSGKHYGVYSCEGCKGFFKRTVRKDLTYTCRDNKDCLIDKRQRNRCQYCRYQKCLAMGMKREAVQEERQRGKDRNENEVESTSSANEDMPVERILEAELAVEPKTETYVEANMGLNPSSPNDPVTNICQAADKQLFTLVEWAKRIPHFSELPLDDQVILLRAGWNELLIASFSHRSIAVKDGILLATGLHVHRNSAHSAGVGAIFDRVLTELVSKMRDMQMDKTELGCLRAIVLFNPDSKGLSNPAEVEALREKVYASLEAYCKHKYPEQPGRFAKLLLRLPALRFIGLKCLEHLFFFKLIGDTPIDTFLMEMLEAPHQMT

B1: DR1 (dsDNA)
DNA 1: TCGAGGGTAGGGGTCAGAGGTCACTCGTCGA
DNA 2: TCGACGAGTGACCTCTGACCCCTACCCTCGA
binding result: binds
